One assay deals with human FcR. Put plainly: cell-based or functional assay.
For assay [1], the target named is human CD3 on Jurkat cells (human) (UniProt P07766). The experiment in a line: competition with 125I-UCHT1 on Jurkat cells, competitor at 1 nM.
The target is the same in assay [2]. Put plainly: competition with 125I-UCHT1 on Jurkat cells, competitor at 100 nM.
Assay [3] has the same target. The experiment in a line: cell-based or functional assay.
The target is the same in assay [4]. Put plainly: competition with 125I-UCHT1 on Jurkat cells, COS-7 preparation at 1 nM.
For assay [5] the target is unchanged. Put plainly: competition with 125I-UCHT1 on Jurkat cells, SP2/0 preparation at 1 nM.
Assay [6] has the same target. Put plainly: competition with 125I-UCHT1 on Jurkat cells, COS-7 preparation at 100 nM.
The target is the same in assay [7]. The experiment in a line: competition with 125I-UCHT1 on Jurkat cells, SP2/0 preparation at 100 nM.

UniProt P07766, sequence (P07766 23-207): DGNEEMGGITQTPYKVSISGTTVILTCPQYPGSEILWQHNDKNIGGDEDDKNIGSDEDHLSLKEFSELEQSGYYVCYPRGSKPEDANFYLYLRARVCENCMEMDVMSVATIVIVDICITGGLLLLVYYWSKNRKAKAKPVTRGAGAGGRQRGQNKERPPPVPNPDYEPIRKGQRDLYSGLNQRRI

Consider “UCHT1 monoclonal antibody (anti-human CD3)”, for which, in the assay with human FcR, the T-cell proliferation of human PBMCs ([3H]thymidine incorporation), concentration at peak amounted to 100 ng/mL and the T-cell proliferation of human PBMCs ([3H]thymidine incorporation), lowest active concentration was 0.1 ng/mL. Moreover, the % of 125I-UCHT1 bound to cells in assay [1] worked out at 80%. The % of 125I-UCHT1 bound to cells in assay [2] stood at 0%.
Take “sFv-DT390, anti-CD3 single-chain immunotoxin with truncated diphtheria toxin (from UniProt P00588 33-422)”: in assay [3], the IC50 (toxicity, inhibition of protein synthesis) was determined as 0.048 nM; the Protein synthesis (% of controls), Jurkat cells, 1 x 10^-10 M, no serum (% of controls) turned out to be 18; the potency relative to UCHT1-CRM9 (fold of UCHT1-CRM9 potency) is 0.0625.
With “scUCHT1, chimeric anti-human CD3 single chain antibody (UCHT1 VL-linker-VH fused to human IgM Fc µCH2 to µCH4) (from UniProt P01871 106-453) (scFv)”, the % of 125I-UCHT1 bound to cells was determined as 80% in assay [4], 80% in assay [5], 0% in assay [6] and 0% in assay [7].

For the origin of these results see patent EP1073463B1.
